Data published in patent publication US8653242B2, “Therapeutic antibodies against flagellated Pseudomonas aeruginosa” (priority 2010, dated 2014).

Key:
[1] = tested on: mixed PA27853 and Ka02 bacteria; assay: ELISA on mixed fixed bacteria; assay type: binding, P. aeruginosa; conditions: 1 nM mAb; wells coated with half the amount of each strain
Description: (§1) From a single fresh bacterial colony, PA strains 27853 (harboring flagellin type A) or Ka02 (harboring flagellin type B) were grown overnight in 5 ml LB at 37° C. Thereafter, bacterial cultures were centrifuged at 1500 g for 30 min and following removal of the clear supernatant, pellets were washed twice with 20 ml PBS with intervening centrifugation. The final pellet was resuspended in a volume of PBS (˜10 ml) and adjusted to generate an OD600 of ˜0.2 and maintained on ice prior to coating on ELISA plates which were prepared as follows: to the wells of flat-bottomed ELISA plates (Nunc, cat #442404), 50 μl poly-L-lysine (PLL, Sigma Cat # P-1524) of a 1 μg/ml solution was added and plates were incubated for 30 min at room temperature. Thereafter, non-adsorbed PLL was removed. Fifty μl of the appropriate bacterial suspensions from the different strains at 0.2 OD600 nm were added to the PLL-coated ELISA plates. In some wells, a “mixed-bacterial population” was added. To that end, 25 μl of PA 27853 and 25 μl of Ka02 bacterial suspensions were added to the same wells. […]
ELISA plates containing the fixed P. aeruginosa bacteria, were blocked by adding 200 μl PBS-10% FBS for 60 min at room temperature. […] Thereafter, signal was quenched with 50 μA 10% H2SO4 and plates read at 450 nm in a Microtiter plate reader (Anthos MultiRead 400). […]

[2] = tested on: PA27853 (flagellin type A); assay: ELISA on formaldehyde-fixed PA27853; assay type: binding, P. aeruginosa; conditions: fixed whole bacteria ELISA, 1 nM mAb
Description: as §1
(§2) ELISA plates containing the fixed P. aeruginosa bacteria, were blocked by adding 200 μl PBS-10% FBS for 60 min at room temperature. […] Thereafter, signal was quenched with 50 μA 10% H2SO4 and plates read at 450 nm in a Microtiter plate reader (Anthos MultiRead 400).

[3] = target: P. aeruginosa flagellin type B (Pseudomonas aeruginosa, UniProt P72151); assay: ELISA of LST-009 on recombinant flagellin type B; assay type: binding; conditions: 250 ng/well antigen
Chain of P. aeruginosa flagellin type B (P72151 whole entry): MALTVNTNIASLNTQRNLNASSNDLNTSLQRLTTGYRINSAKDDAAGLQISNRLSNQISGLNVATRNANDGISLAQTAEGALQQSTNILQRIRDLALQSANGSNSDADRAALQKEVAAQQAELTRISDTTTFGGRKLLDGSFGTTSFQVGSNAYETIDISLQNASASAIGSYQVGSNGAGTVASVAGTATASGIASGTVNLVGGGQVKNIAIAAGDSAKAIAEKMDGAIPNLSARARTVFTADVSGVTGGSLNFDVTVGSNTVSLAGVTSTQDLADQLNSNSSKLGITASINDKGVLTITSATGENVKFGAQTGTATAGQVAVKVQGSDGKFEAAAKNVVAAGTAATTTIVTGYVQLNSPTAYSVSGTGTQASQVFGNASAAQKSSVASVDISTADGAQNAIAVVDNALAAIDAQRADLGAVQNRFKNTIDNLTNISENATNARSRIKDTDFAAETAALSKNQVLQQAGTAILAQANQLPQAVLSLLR
Description: (§3) Two hundred and fifty ng (250 ng) of P. aeruginosa flagellin type A or B (50 μl from 5 μg/ml) were dispensed into each well of ELISA plates (Nunc, cat #442404) and coating allowed to proceed for 2 hours at room temperature with gentle shaking. Plates were then blocked with 200 μl PBS-10% fetal bovine serum (FBS) overnight at 4° C.
(§4) To that end, following three washes with PBS-0.05% Tween-20, 50 μl of a goat anti-human IgG (Fc)-HRP (Cat # A80-104P; Bethyl, Tex., USA) was added at a dilution of 1:10,000 in PBS-10% FBS with incubation allowed to proceed for 60 min at room temperature. Following 3 separate washes with PBS-Tween-20 (0.05%) and gentle tapping of plates on paper towels to remove final traces of wash buffer, 50 μl TMB/E substrate solution (Cat #ES001-500 ml; Millipore) was added for 15 min at room temperature. Thereafter, signal was quenched with 50 μl 10% H2SO4 and plates read at 450 nm in a Microtiter plate reader (Anthos MultiRead 400).

[4] = tested on: flagellin type A strains (PA141, PA49, PA1, PA409 and PAK); assay: Western blot of P. aeruginosa lysates, flagellin type A strains; assay type: binding; conditions: mAb 10 μg/ml
Description: (§5) The binding specificity of the chimeric LST-003 mAb was assessed in a western blot experiment as compared to the parental mouse LST-001 mAb. Two identical, yet separate nitrocellulose membranes containing a panel of blotted P. aeruginosa lysates of type A or B flagellin following electrophoresis were hybridized with either mouse LST-001 (FIG. 5A) or chimeric LST-003 (FIG. 5B) mAbs at identical final concentrations (10 μg/ml) with the ensuing detecting secondary peroxidase-conjugated antibodies being anti-mouse Fc or anti-human Fc respectively. Laboratory strains PAK (type A flagellin) or PA01 (type B flagellin) were included as appropriate controls whereas other strains represented multi-drug resistant (MDR) P. aeruginosa strains. […] FIG. 6 also depicts binding of LST-001, LST-002 and LST-003 to immobilized, whole P. aeruginosa as measured in an ELISA and confirms the western blot findings. See below in Example 7 for the ELISA protocol.

[5] = target: T1, flagellin type B strains (PA21 and PA01) (Pseudomonas aeruginosa, UniProt P72151); assay: Western blot of P. aeruginosa lysates, flagellin type B strains; assay type: binding; conditions: mAb 10 μg/ml
T1 construct: a panel of blotted P. aeruginosa lysates of type A or B flagellin; endogenous in cells; host or cells: P. aeruginosa strains PA21 (MDR isolate) and PA01 (laboratory strain)
T1 sequence (P72151 whole entry): as above
Description: as §5

[6] = target: P. aeruginosa flagellin type A (Pseudomonas aeruginosa, UniProt P21184); assay: ELISA of LST-009 on recombinant flagellin type A; assay type: binding; conditions: 250 ng/well antigen
Chain of P. aeruginosa flagellin type A (P21184 whole entry): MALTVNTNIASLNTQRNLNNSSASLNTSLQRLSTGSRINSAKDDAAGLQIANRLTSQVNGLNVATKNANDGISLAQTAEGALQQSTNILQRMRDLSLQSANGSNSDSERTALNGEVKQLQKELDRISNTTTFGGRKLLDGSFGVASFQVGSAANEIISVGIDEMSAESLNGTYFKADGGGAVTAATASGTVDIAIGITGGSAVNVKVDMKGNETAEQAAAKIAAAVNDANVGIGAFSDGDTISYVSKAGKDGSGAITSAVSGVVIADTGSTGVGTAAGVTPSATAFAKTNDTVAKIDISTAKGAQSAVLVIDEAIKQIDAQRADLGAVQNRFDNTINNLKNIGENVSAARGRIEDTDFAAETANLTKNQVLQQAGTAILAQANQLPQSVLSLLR
Description: as §3, §4

Ka02 (flagellin type B) = assay: ELISA on formaldehyde-fixed Ka02; assay type: binding, P. aeruginosa; conditions: fixed whole bacteria ELISA, 1 nM mAb
Description: as §1, §2

B1: LST-004 (antibody, V domains shown)
VH: MNFGLSLVFLVLILKGVQCEVMLVESGGGLVKPGGSLKLSCAASGFTFSTFTMSWVRQTPEKRLECVATINGGGGNTYYPDSVKGRFTISRDNAKNNLYLQMSSLRSEDTAFYFCSRLYGIYAMDYWGQGTSVTVSS
VL: MKSHTQVFVYMLLWLSGVEGDIVMTQSHIFMSTSVGDRVSITCKASQDVGSAVAWYQQKPGQSPKVLIYWTSTRHTGVPDRFAGSGSGTEFTLTISNVQSEDLADYFCQQYSSYPLTFGAGTKLELKR
modifications: human IgG1 constant domains lacking entries
OD as compared to FIG. 16 (full amount of bacteria) [1]: approximately 50%
binding to PA27853 [2]: minimal signal
EC50 towards P. aeruginosa flagellin type B [3]: approximately 300 ng/ml

B2: LST-003 (antibody, V domains shown)
VH: MMVLSLLYLLTAIPGILSDVQLQESGPGLVKPSQSLSLPCSVTGYSITSGYYWNWIRQFPGNKLEWMGYIRYDGNNNYNPSLKNRISITHDTSKNQFFLKLNYVTTEDTATYYCARGLQFYFDSWGQGTTLTVSS
VL: MVLILLLLWVSGTCGDIVMSQSPSSLAVSGGEKVTMSCKSSQSLLNGSYQKHTLAWYQQKPGQSPKLLIYWASTRESGVPDRFTGSGSGTDFTLTISSVKAEDLAVYYCQQYYSYPWTFGGGTKLEIKR
modifications: human IgG1 constant domains lacking entries
OD as compared to FIG. 16 (full amount of bacteria) [1]: approximately 50%
immunoblot reactivity to flagellin type A strains [4]: stronger binding
immunoblot reactivity to flagellin type B strains [5]: not flagellin type B
EC50 towards P. aeruginosa flagellin type A [6]: approximately 65 ng/ml
binding to Ka02 (Ka02 (flagellin type B)): failed to bind Ka02
